The values below come from PMC10179609.

Data set [1] can be described thus: viscometry; falling ball micro viscometer, 20 °C, Tpm 1.0 mg/mL (15 µM), 30 mM HEPES-Na pH 7.3, 100 mM NaCl, 4 mM DTT; end-to-end (N- and C-ends) interaction of Tpm dimers. As to conditions: other: viscometry.
Data set [2] concerns the target F-actin (skeletal rabbit muscle actin) (rabbit) (UniProt P68135).
Data set [3] shares this target. The data set is described as follows: co-sedimentation; without TnT1; 10 μM F-actin, Tpm 0 to 7.5 μM, 20 °C, 30 mM HEPES-Na pH 7.3, 200 mM NaCl; 100,000 g 40 min, SDS-PAGE of pellet and supernatant.
Data set [4] has the same target. The data set can be described thus: light scattering on heating; 20 μM phalloidin-stabilized F-actin, 10.5 μM Tpm, 30 mM HEPES-Na pH 7.3, 100 mM NaCl; 350 nm, heating 1 °C/min; Tdiss is the temperature of a 50% decrease in light scattering.
The target is the same in data set [5]. The data set can be described thus: co-sedimentation; with 1.5 μM TnT1 (fragment of human cardiac troponin T); 10 μM F-actin, Tpm 0 to 7.5 μM, 20 °C, 30 mM HEPES-Na pH 7.3, 255 mM NaCl; 100,000 g 40 min, SDS-PAGE of pellet and supernatant.
Data set [6] addresses α-chain of tropomyosin (αTpm, Tpm 1.1), single chain (human). The data set can be described thus: cross-linking; ααTpm, κκTpm or their equimolar mixture heated to 70 °C, cooled, dimers cross-linked at SH groups with DTNB; SDS-PAGE without β-mercaptoethanol.
Data set [7] deals with F-actin (skeletal rabbit muscle actin) (rabbit) (UniProt P68135). The data set can be described thus: co-sedimentation; without TnT1; 10 μM F-actin, Tpm 0 to 7.5 μM, 20 °C, 30 mM HEPES-Na pH 7.3, 200 mM NaCl; 100,000 g 40 min, SDS-PAGE of pellet and supernatant. This is another data set of the same source.

Like-named read-outs stand apart in the source and are kept apart here.

Take “ααTpm homodimer (alpha-tropomyosin, Tpm 1.1)”: in data set [1], the “viscosity of the Tpm solution” value is listed as 0.41 ± 0.04 mPa·s.

“ααTpm homodimer (alpha-tropomyosin, Tpm 1.1) (natural protein)” came in with a reduction of the sliding velocity of F-actin (2.2 µm/s) in the in vitro motility assay in data set [2] of 50%. The substance also registered a K50% (Tpm concentration at half-saturation of F-actin) in data set [3] of 1.23 µM. In data set [4], this substance yielded a Tdiss (temperature of 50% dissociation of the complex with F-actin) of 45.9 °C.

In data set [5], ακTpm heterodimer (complex) displayed a K50% with TnT1 (Tpm concentration at half-saturation of F-actin) of 0.71 µM.

Regarding “κ-chain of tropomyosin (κTpm, Tpm 1.2), single chain (natural protein)”, in data set [6], the share of heterodimers among the dimers formed from an equimolar mixture is less than 90%.

As to “κκTpm homodimer (kappa-tropomyosin, Tpm 1.2)”, the “viscosity of the Tpm solution” value in data set [1] was found to be 0.09 ± 0.01 mPa·s.

“κκTpm homodimer (kappa-tropomyosin, Tpm 1.2) (natural protein)” gave a reduction of the sliding velocity of F-actin (2.2 µm/s) in the in vitro motility assay in data set [2] of 30%. Besides, the K50% (Tpm concentration at half-saturation of F-actin) came out at 1.29 µM in data set [3] and 2.37 µM in data set [7]. In data set [5], the K50% with TnT1 (Tpm concentration at half-saturation of F-actin) was 0.88 µM. The substance also returned a Tdiss (temperature of 50% dissociation of the complex with F-actin) in data set [4] of 42.1 °C.
